In publication doi:10.1101/2022.01.13.476208:
Each block holds one substance with its values, some of them ahead of it.

What was measured:
[1] = target: Wild-type GPIbα, residues 1-290, with Avi-tag, biotinylated; assay: BLI
[2] = target: A1 short (human) (UniProt P04275); assay: ITC

Kd [1]: 0.18 µM
Substance: A1 short (from UniProt P04275 1264-1469) (domain or fragment)

fold lower affinity than A1 short [1]: 2.5 fold
Substance: A1+C (from UniProt P04275 1264-1486) (domain or fragment)

fold lower affinity than A1 short [1]: 4.3 fold
Substance: A1+N (from UniProt P04275 1238-1469) (domain or fragment)

fold lower affinity than A1 short [1]: 10 fold
Substance: A1+N+C (from UniProt P04275 1238-1486) (domain or fragment)

fold lower affinity than A1+C [1]: 2 fold
fold lower affinity than A1 without linkers [1]: 6 fold
Substance: A1+OGly+C (from UniProt P04275 1264-1489) (domain or fragment)

fold lower affinity than A1+N [1]: 10 fold
fold lower affinity than A1 without linkers [1]: 51 fold
Substance: A1+OGly+N (from UniProt P04275 1238-1469) (domain or fragment)

Kd [1]: 9.2 µM
fold increase in affinity in 10 mM against 150 mM NaCl [1]: 20 fold
fold increase in kon in 10 mM against 150 mM NaCl [1]: 7 fold
fold lower affinity than with the O-glycosylated N-linker alone [1]: 1.2 fold
Substance: A1+OGly+N+C (from UniProt P04275 1238-1489) (domain or fragment)

fold higher affinity than A1+OGly+N+C [2]: 39 fold
Substance: Wild-type GPIbα, residues 1-290, without Avi-tag (domain or fragment)
